B1: 16-mer duplex (SPR, biotinylated) (dsDNA)
DNA 1: CGCGTACGCGTACGCG
DNA 2: CGCGTACGCGTACGCG
B2: 8-mer duplex (SPR, biotinylated) (dsDNA)
DNA 1: CGCTATAGCG
DNA 2: CGCTATAGCG
B3: 16-mer duplex (NMR) (dsDNA)
DNA 1: CGCGTACGCGTACGCGTA
DNA 2: TACGCGTACGCGTACGCG
B4: 12-mer duplex (dsDNA)
DNA 1: CAATCCGGATTG
DNA 2: CAATCCGGATTG

Assays:
Sso7c4 [1] = molecular target: T1, Sso7c4 (Saccharolobus (Sulfolobus) solfataricus …, UniProt P81552 2-56); assay: SPR
T1 sequence: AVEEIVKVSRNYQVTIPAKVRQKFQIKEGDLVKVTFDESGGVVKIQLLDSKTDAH

Sso7c4 [2] = molecular target: T1, Sso7c4; assay: NMR 1H-15N HSQC titration
Sso7c4 [3] = molecular target: T1, Sso7c4; assay: NMR 1D 1H titration of DNA

Binder | Kd (Sso7c4 [1]) | other results
B1 | 1.54 µM | 
B2 | 10.1 µM | 
B3 |  | binding result (Sso7c4 [2]): binds
B4 |  | binding result (Sso7c4 [3]): binds

— publication PMC3159460
